Data: patent publication US20250376519A1 (JIANGSU HENGRUI PHARMACEUTICALS, published 2025)
Substitutions are numbered along the chain they refer to. Blank lines part the entries; values can stand above or below the binder they belong to.

Tests used:
human DLL3 on cells [1] = target: T1, human DLL3 on cells (human, UniProt Q9NYJ7 27-618); experiment: flow cytometry, H1184 cells
T1 construct: Endogenous on H1184 and SHP77; Cell line is named under assay; also called H1184; DLL3/H82
T1 sequence: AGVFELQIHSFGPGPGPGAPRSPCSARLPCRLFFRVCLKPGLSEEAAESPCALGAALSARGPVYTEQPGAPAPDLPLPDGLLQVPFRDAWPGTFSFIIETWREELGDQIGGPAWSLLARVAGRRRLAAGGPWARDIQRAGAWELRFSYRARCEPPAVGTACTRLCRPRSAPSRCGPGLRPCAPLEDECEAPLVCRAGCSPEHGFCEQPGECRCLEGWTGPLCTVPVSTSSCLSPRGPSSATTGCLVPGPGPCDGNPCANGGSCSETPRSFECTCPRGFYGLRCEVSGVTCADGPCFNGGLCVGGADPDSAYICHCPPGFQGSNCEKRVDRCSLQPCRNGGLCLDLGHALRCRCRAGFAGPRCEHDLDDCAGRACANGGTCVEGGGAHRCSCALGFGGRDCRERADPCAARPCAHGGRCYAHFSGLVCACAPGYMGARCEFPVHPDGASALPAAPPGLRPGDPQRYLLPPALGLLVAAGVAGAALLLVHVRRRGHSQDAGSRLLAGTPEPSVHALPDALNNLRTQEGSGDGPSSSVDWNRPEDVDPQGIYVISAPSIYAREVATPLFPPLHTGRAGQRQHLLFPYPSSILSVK
Description: (§1) The plates were centrifuged at 300 g for 5 min, and the supernatant was removed. Different concentrations of test antibodies were added at 100 μL/well. The plates were incubated in the dark in a refrigerator at 4° C. for 1 h. After 3 centrifugal washes at 300 g, working concentrations of APC anti-human IgG Fc (BioLegend, 410712) or PE F(ab′)2-goat anti-human IgG (invitrogen, H10104) were added. The plates were incubated in the dark in a refrigerator at 4° C. for 40 min. After 3 centrifugal washes at 300 g, the geometric mean fluorescence intensity was measured on an Invitrogen flow cytometer, and the EC50 values for the binding of the antibodies to DLL3-expressing cells were calculated.

[2] = target: T2, human DLL3 (ACRO, DLL3-H52H4) (human, UniProt Q9NYJ7 27-492); experiment: SPR Biacore 8K, Ab captured on Protein A
T2 construct: Bought
T2 sequence: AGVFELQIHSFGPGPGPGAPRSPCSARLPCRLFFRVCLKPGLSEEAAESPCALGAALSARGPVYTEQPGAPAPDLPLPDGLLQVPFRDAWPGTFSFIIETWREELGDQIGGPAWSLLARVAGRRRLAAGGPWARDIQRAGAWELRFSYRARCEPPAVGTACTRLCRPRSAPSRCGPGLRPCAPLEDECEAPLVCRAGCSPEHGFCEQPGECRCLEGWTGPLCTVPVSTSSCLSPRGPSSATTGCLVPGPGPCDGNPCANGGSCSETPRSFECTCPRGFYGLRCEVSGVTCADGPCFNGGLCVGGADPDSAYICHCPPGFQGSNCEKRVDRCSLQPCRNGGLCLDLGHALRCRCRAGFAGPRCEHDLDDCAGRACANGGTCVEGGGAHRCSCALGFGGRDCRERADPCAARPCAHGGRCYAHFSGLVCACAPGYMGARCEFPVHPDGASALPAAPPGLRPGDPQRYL
Description: Test antibodies were affinity-captured with a Protein A biosensor chip (Cat. #29127556, Cytiva) for 18 seconds, and then the antigens human DLL3 (ACRO, DLL3-H52H4), cynomolgus monkey DLL3 (KACTUS, DLL-RM103), mouse DLL3 (KACTUS, DLL-MM103), human CD3D&3E (ACRO, CDD-H52W1), and monkey CD3D&3E (ACRO, CDD-C52W4) were allowed to flow through the surface of the chip for 180 seconds, followed by 600 seconds of dissociation. Reaction signals were detected in real time using a Biacore 8K (Cytiva) instrument to obtain association and dissociation curves. After the dissociation in each experimental cycle, the chip was washed and regenerated with a 10 mM glycine-hydrochloric acid solution (pH 1.5, Cat. #BR-1003-54, Cytiva). Data fitting was performed using a 1:1 Model.

human DLL3 on cells [3] = target: T1, human DLL3 on cells; experiment: flow cytometry, DLL3/H82 cells; parameters: key to Emax: geometric mean fluorescence intensity (flow cytometry)
Description: as §1

EC50 (human DLL3 on cells [1]): 0.06 nM | Emax (human DLL3 on cells [1]): 2190 | Kd [2]: 1.64 nM | koff [2]: 0.00116 s⁻¹ | kon [2]: 704000 M⁻¹ s⁻¹
B1: hu6L2H2 (antibody, human IgG1, kappa, V domains shown)
VH: EVQLVQSGAEVKKPGASVKVSCKASGYTFTDYYMNWVRQAPGQRLEWMGIINPYSGVTIYNHKFKGRVTLTVDKSANTAYMELSSLRSEDTAVYYCARQDSLLDYAMDYWGQGTTVTVSS
VL: DIQMTQSPSSLSASVGDRVTITCHASQGISGNMGWLQQKPGKAPKGLIYHGANLEDGVPSRFSGSGSGADYTLTISSLQPEDFATYYCVQYAQFPYTFGGGTKVEIKR

EC50 (human DLL3 on cells [1]): 0.05 nM | Emax (human DLL3 on cells [1]): 2420 | Kd [2]: 0.877 nM | koff [2]: 0.000756 s⁻¹ | kon [2]: 863000 M⁻¹ s⁻¹
B2: hu6L2H6 (antibody, human IgG1, kappa, V domains shown)
VH: EVQLVQSGSELKKPGASVKVSCKASGYTFTDYYMNWVRQAPGQGLEWMGIINPYSGVTIYNHKFKGRFVLSVDKSSNTAYLQISSLKAEDTAVYYCARQDSLLDYAMDYWGQGTTVTVSS
VL: B1 VL

EC50 (human DLL3 on cells [1]): 0.04 nM | Emax (human DLL3 on cells [1]): 1960 | Kd [2]: 0.363 nM | koff [2]: 0.000749 s⁻¹ | kon [2]: 2.06e+06 M⁻¹ s⁻¹
B3: hu6L2H11 (antibody, human IgG1, kappa, V domains shown)
VH: B2 VH with R38K
VL: B1 VL

EC50 (human DLL3 on cells [1]): 0.1 nM | Emax (human DLL3 on cells [1]): 2140 | Kd [2]: 0.461 nM | koff [2]: 0.000913 s⁻¹ | kon [2]: 1.98e+06 M⁻¹ s⁻¹
B4: hu6L2H12 (antibody, human IgG1, kappa, V domains shown)
VH: B2 VH with V69A
VL: B1 VL

EC50 (human DLL3 on cells [1]): 0.06 nM | Emax (human DLL3 on cells [1]): 2310 | Kd [2]: 1.45 nM | koff [2]: 0.00108 s⁻¹ | kon [2]: 743000 M⁻¹ s⁻¹
B5: hu6L4H4 (antibody, human IgG1, kappa, V domains shown)
VH: B1 VH with Q43K
VL: B1 VL with T85D

EC50 (human DLL3 on cells [1]): 0.06 nM | Emax (human DLL3 on cells [1]): 2490 | Kd [2]: 0.969 nM | koff [2]: 0.000784 s⁻¹ | kon [2]: 810000 M⁻¹ s⁻¹
B6: hu6L2H5 (antibody, human IgG1, kappa, V domains shown)
VH: B2 VH with S76V, N77S
VL: B1 VL

EC50 (human DLL3 on cells [3]): 0.54 nM | Emax (human DLL3 on cells [3]): 5440 | Kd [2]: 1.07 nM | koff [2]: 0.00104 s⁻¹ | kon [2]: 966000 M⁻¹ s⁻¹
B7: hu30L2H4 (antibody, human IgG1, kappa, V domains shown)
VH: EVRLVQSGAEVKKPGASVKVSCKASGYTFTDYYMNWVRQAPGQSLEWMGIINPYSGDTSYNQKFRGRVTLTVDKSASTAYMELSSLRSEDTAVYYCARYHYGPHLEGYFDVWGQGTTVTVSS
VL: DIVMTQSPDSLAVSLGERATINCKASENVGYVSWYQQKPGQPPKLLIYGASNRYTGVPDRFSGSGSATDFTLTISSLQAEDVAVYHCGQSYSYPLTFGQGTKLEIKR

EC50 (human DLL3 on cells [3]): 0.51 nM | Emax (human DLL3 on cells [3]): 5530 | Kd [2]: 0.362 nM | koff [2]: 0.00059 s⁻¹ | kon [2]: 1.63e+06 M⁻¹ s⁻¹
B8: hu30L3H1 (antibody, human IgG1, kappa, V domains shown)
VH: B7 VH with R3Q, S55N, L70I
VL: B7 VL with D9K, P42S

EC50 (human DLL3 on cells [3]): 0.46 nM | Emax (human DLL3 on cells [3]): 5340 | Kd [2]: 0.939 nM | koff [2]: 0.000894 s⁻¹ | kon [2]: 952000 M⁻¹ s⁻¹
B9: hu30L3H6 (antibody, human IgG1, kappa, V domains shown)
VH: B7 VH with S55N, G56V
VL: B7 VL with D9K, P42S

EC50 (human DLL3 on cells [3]): 0.43 nM | Emax (human DLL3 on cells [3]): 5250 | Kd [2]: 0.735 nM | koff [2]: 0.00082 s⁻¹ | kon [2]: 1.12e+06 M⁻¹ s⁻¹
B10: hu30L3H5 (antibody, human IgG1, kappa, V domains shown)
VH: B7 VH with S55T
VL: B7 VL with D9K, P42S

EC50 (human DLL3 on cells [3]): 0.44 nM | Emax (human DLL3 on cells [3]): 5390 | Kd [2]: 0.891 nM | koff [2]: 0.000762 s⁻¹ | kon [2]: 855000 M⁻¹ s⁻¹
B11: hu30L3H2 (antibody, human IgG1, kappa)
heavy: not shown
light: DIVMTQSPKSLAVSLGERATINCKASENVGYVSWYQQKPGQSPKLLIYGASNRYTGVPDRFSGSGSATDFTLTISSLQAEDVAVYHCGQSYSYPLTFGQGTKLEIKRTVAAPSVFIFPPSDEQLKSGTASVVCLLNNFYPREAKVQWKVDNALQSGNSQESVTEQDSKDSTYSLSSTLTLSKADYEKHKVYACEVTHQGLSSPVTKSFNRGEC

EC50 (human DLL3 on cells [3]): 0.83 nM | Emax (human DLL3 on cells [3]): 5580 | Kd [2]: 1.09 nM | koff [2]: 0.000983 s⁻¹ | kon [2]: 900000 M⁻¹ s⁻¹
B12: hu30L2H7 (antibody, human IgG1, kappa)
heavy: not shown
light: B11 light with K9D, S42P

EC50 (human DLL3 on cells [3]): 0.43 nM | Emax (human DLL3 on cells [3]): 5300 | Kd [2]: 1.25 nM | koff [2]: 0.00131 s⁻¹ | kon [2]: 1.05e+06 M⁻¹ s⁻¹
B13: hu30L3H3 (antibody, human IgG1, kappa, V domains shown)
VH: B7 VH with S55Q
VL: B7 VL with D9K, P42S

EC50 (human DLL3 on cells [3]): 0.43 nM | Emax (human DLL3 on cells [3]): 5340 | Kd [2]: 0.882 nM | koff [2]: 0.000956 s⁻¹ | kon [2]: 1.08e+06 M⁻¹ s⁻¹
B14: hu30L3H4 (antibody, human IgG1, kappa, V domains shown)
VH: B7 VH
VL: B7 VL with D9K, P42S

EC50 (human DLL3 on cells [3]): 0.69 nM | Emax (human DLL3 on cells [3]): 5420 | Kd [2]: 1.08 nM | koff [2]: 0.000988 s⁻¹ | kon [2]: 915000 M⁻¹ s⁻¹
B15: hu30L2H6 (antibody, human IgG1, kappa, V domains shown)
VH: B7 VH with S55N, G56V
VL: B7 VL

EC50 (human DLL3 on cells [3]): 0.43 nM | Emax (human DLL3 on cells [3]): 5450 | Kd [2]: 0.815 nM | koff [2]: 0.000853 s⁻¹ | kon [2]: 1.05e+06 M⁻¹ s⁻¹
B16: hu30L3H7 (antibody, human IgG1, kappa)
heavy: not shown
light: B11 light

EC50 (human DLL3 on cells [3]): 0.65 nM | Emax (human DLL3 on cells [3]): 5570 | Kd [2]: 0.969 nM | koff [2]: 0.000907 s⁻¹ | kon [2]: 935000 M⁻¹ s⁻¹
B17: hu30L2H5 (antibody, human IgG1, kappa, V domains shown)
VH: B7 VH with S55T
VL: B7 VL
